This is an account of results in article PMC9780223 (2022).

The target in this test is purified recombinant PAPP-A free of STC2 (apo PAPP-A) (human, UniProt Q13219 82-1627, fluorescently labeled with Protein Labeling Kit RED-NHS (in MST)). Put plainly: MST; in the presence of IGF2.

B1: IGFBP4 with C-terminal His6 tag (natural protein)
chain: DEAIHCPPCSEEKLARCRPPVGCEELVREPGCGCCATCALGLGMPCGVYTPRCGSGLRCYPPRGVEKPLHTLMHGQGVCMELAEIEAIQESLQPSDKDEGDHPNNSFSPCSAHDRRCLQKHFAKIRDRSTSGGKMKVNGAPREDARPVPQGSCQSELHRALERLAASQSRTHEDLYIIPIPNCDRNGNFHPKQCHPALDGQRGKCWCVDRKTGVKLPGGLEPKGELDCHQLADSFRE
B1: the Kd (as a rule, the equilibrium constant for the complex coming apart) is approximately 160 nM.
